Data taken from PMC11968938 (Scientific Reports, 2025).
Where two headings read alike, the source gives them in different places.

Key:
[1] = biological target: the molecule itself; assay: crystal structure
[2] = biological target: the molecule itself; assay: crystal structure; remark: listed apart in the source

| Protein | stoichiometry N [1] | stoichiometry N [2] |
| --- | --- | --- |
| BBH37_(119-312) (domain or fragment, B. burgdorferi B31, UniProt O50692 119-312, looked up, Cys165 in a disulfide bond with Cys165 of the other protomer) EHNQKKEIKEEDFFPSTEEEKQADKAIKDIENLIGESGFPELIENVCSLKHEYTLIRSDFYDVITKIQNKKISLMKNSHNNRNKIRELVQLQNNLKIGDELDKIMGCIDTAEQEIRSAAFFFDEAKESLKEGIIKRLEKSKNRAASQLSKKALNRAEDALRCLENYSSKKGEAIGRRSFIKEVVEQAKNALSKS | 2 |  |
| BBH37_(131-312) (domain or fragment, B. burgdorferi B31, UniProt O50692 131-312, looked up, Cys165 in a disulfide bond with Cys165 of the other protomer) FFPSTEEEKQADKAIKDIENLIGESGFPELIENVCSLKHEYTLIRSDFYDVITKIQNKKISLMKNSHNNRNKIRELVQLQNNLKIGDELDKIMGCIDTAEQEIRSAAFFFDEAKESLKEGIIKRLEKSKNRAASQLSKKALNRAEDALRCLENYSSKKGEAIGRRSFIKEVVEQAKNALSKS |  | 2 |
